Results published in IntAct's records for PubMed 30388101.

B1: Paired immunoglobulin-like type 2 receptor alpha (Homo sapiens), Q9UKJ1 (parent)
chain: MGRPLLLPLLPLLLPPAFLQPSGSTGSGPSYLYGVTQPKHLSASMGGSVEIPFSFYYPWELATAPDVRISWRRGHFHRQSFYSTRPPSIHKDYVNRLFLNWTEGQKSGFLRISNLQKQDQSVYFCRVELDTRSSGRQQWQSIEGTKLSITQAVTTTTQRPSSMTTTWRLSSTTTTTGLRVTQGKRRSDSWHISLETAVGVAVAVTVLGIMILGLICLLRWRRRKGQQRTKATTPAREPFQNTEEPYENIRNEGQNTDPKLNPKDDGIVYASLALSSSTSPRAPPSHRPLKSPQNETLYSVLKA
B2: Paired immunoglobulin-like type 2 receptor alpha (Homo sapiens), Q9UKJ1 (parent)
chain: B1 chain
partner: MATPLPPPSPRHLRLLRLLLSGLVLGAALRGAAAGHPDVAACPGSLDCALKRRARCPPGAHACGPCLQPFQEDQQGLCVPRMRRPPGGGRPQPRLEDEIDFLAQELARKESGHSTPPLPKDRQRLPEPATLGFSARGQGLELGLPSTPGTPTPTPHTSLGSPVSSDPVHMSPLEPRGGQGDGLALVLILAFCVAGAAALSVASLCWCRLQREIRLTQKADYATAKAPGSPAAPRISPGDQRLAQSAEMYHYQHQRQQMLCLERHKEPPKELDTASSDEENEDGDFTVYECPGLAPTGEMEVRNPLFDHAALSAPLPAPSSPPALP
B3: Paired immunoglobulin-like type 2 receptor alpha (Homo sapiens), Q9UKJ1 (parent)
chain: B1 chain
partner: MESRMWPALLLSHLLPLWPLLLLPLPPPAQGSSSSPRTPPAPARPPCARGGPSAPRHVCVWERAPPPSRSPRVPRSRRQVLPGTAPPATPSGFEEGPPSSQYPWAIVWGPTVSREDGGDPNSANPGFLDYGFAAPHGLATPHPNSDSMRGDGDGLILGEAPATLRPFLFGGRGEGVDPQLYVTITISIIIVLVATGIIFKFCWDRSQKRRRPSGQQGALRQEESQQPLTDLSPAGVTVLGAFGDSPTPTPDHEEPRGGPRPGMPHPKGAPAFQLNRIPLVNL

Variants of: B1
Settings: with co4a_human C4A

| Variant | effect of a mutation on the interaction |
| --- | --- |
| S80G | increasing interaction strength |
| F76A | disrupting interaction strength |
| R78G | increasing interaction strength |

Variants of: B2
Settings: with npdc1_human NPDC1, Q9NQX5

| Variant | effect of a mutation on the interaction |
| --- | --- |
| S141A | increasing interaction strength |
| R78G | increasing interaction strength |
| S80G | increasing interaction strength |
| R72A | disrupting interaction strength |
| F76A | disrupting interaction strength |
| Q140A | disrupting interaction strength |

Variants of: B2
Settings: with npdc1_human NPDC1, Q9NQX5
Remark: another data set of the same source

| Variant | effect of a mutation on the interaction |
| --- | --- |
| Q140A | decreasing interaction strength |

Variants of: B3
Settings: with pianp_human PIANP

| Variant | effect of a mutation on the interaction |
| --- | --- |
| S80G | increasing interaction strength |
| F76A | disrupting interaction strength |
| R72A | disrupting interaction strength |
| R78G | increasing interaction strength |
